From patent publication US20240417457A1

Target: FRα covalently bound to a CM5 sensor chip (UniProt P15328)
Experiment: SPR (Biacore T200), FRα amine-coupled to a CM5 chip, 180 sec association then dissociation

Sequence of UniProt P15328 (P15328 25-234 limits assumed): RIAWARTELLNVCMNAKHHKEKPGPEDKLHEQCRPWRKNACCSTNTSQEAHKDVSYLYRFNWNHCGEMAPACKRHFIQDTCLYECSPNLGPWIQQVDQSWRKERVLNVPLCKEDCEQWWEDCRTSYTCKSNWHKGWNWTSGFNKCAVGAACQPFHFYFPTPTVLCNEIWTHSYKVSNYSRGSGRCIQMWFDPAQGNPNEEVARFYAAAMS

B1: Antibody I (ScFv, SEQ. ID. NOs: 9-10) (scFv, part only; not given: linker, domain order, His tag, V domains shown, not shown: another chain or arm of the molecule; small tags and cut ends)
VH: QVQLVQSGSELKKPGASVKVSCKASDYIFTNYDITWVRQAPGQGLEWMGEIDPRSGKSYYNEKFKGKSTLTADKSVSTAYLQISSLKAEDTAVYFCATMYYYGSSPPMDYWGQGTTVTVS
VL: DIQMTQSPSSLSASVGDRVTITCRASQDINNFLNWYQQKPGKAPKLLIYYTSRLHSGVPSRFSGSGSGTDYTFTISSLQPEDIATYFCQQSSTIPRTFGQGTKLEIK
- binding at time 300 sec as percent of the plateau: 75%
